Test results as given in patent US10111934.

Target: IGF-I receptor (IGF-IR) on P6 cells, which overexpress IGF-IR (UniProt P08069)
Test: cell-based or functional assay

Chain of UniProt P08069 (P08069 31-1367 limits assumed): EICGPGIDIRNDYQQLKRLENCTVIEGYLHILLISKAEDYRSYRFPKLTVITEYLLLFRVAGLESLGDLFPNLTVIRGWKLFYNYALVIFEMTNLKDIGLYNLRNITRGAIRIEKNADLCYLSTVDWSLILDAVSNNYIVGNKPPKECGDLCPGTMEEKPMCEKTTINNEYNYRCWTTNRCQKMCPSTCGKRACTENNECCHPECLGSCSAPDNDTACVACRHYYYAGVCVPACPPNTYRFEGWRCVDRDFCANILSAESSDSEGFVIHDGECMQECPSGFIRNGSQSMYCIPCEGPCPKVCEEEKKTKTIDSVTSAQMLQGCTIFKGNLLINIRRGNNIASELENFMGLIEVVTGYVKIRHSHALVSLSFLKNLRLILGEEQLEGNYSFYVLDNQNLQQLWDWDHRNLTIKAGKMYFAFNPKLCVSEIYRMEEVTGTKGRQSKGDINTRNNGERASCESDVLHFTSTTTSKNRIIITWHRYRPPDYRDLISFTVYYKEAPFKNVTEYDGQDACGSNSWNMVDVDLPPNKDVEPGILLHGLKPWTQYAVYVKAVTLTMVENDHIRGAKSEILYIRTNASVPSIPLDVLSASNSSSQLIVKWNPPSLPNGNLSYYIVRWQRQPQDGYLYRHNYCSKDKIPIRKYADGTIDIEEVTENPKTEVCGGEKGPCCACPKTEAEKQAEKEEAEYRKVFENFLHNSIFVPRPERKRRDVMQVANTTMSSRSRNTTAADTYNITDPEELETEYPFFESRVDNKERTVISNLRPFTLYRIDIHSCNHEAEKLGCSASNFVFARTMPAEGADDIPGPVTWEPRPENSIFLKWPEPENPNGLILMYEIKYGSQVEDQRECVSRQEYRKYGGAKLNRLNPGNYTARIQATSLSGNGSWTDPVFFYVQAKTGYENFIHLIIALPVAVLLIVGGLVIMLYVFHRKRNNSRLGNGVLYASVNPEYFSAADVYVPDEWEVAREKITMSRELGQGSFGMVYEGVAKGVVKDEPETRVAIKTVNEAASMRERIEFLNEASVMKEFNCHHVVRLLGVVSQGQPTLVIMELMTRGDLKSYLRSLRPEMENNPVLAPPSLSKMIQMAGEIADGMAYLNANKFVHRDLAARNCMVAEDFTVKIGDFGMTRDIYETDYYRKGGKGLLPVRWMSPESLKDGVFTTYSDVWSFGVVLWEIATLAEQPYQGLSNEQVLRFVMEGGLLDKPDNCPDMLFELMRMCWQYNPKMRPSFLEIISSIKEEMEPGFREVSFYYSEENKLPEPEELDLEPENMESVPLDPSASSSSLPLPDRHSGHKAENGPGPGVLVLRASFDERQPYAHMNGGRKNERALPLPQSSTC

| Substance | KIRA (rel to IStop) | KIRA Raw (IGF-IR phosphorylation, KIRA assay on P6 cells, conditioned medium) | KIRA/Total IGF | other results |
| --- | --- | --- | --- | --- |
| IGF-IA (murine class I IGF-IA, wild-type construct) (from UniProt P05017 49-153) (ligand) | 0.59 | 45.8 | 28.2 | IGF-IR phosphorylation per IGF molecule against mature IGF-I (KIRA, 4 experiments): 30 % less |
| IGF-IKRR (IGF-IA with K68G, R71A, R77A, cleavage blocked) (from UniProt P05017 49-153) (ligand) | 0.61 | 23.6 | 29.3 | IGF-IR phosphorylation per IGF molecule against mature IGF-I (KIRA, 4 experiments): 30 % less |
| pro-IGF-I (non-glycosylated pro-IGF-IA: mature IGF-I plus EA-peptide) (from UniProt P05017 1-153) (ligand) | – | – | – | calculated relative IGF-IR activation by pro-IGF-I (P), mature IGF-I set to 1.0, from the NN equation: 0.84; calculated relative IGF-IR activation by pro-IGF-I (P), mature IGF-I set to 1.0, mean of the NN and KRRNN equations: 0.89 |
| IGF-INN (IGF-IA with N92D and N100D, glycosylation blocked) (from UniProt P05017 49-153) (ligand) | 0.88 | 65.8 | 42.4 | – |
| gly-pro-IGF-I (glycosylated pro-IGF-IA) (from UniProt P05017 1-153) (ligand) | – | – | – | calculated IGF-IR activation (KIRA, FIG. 5B), potency against mature IGF-I (fold less potent): 2; calculated relative IGF-IR activation by gly-pro-IGF-I (GP), mature IGF-I set to 1.0, from the IA equation: 0.3; calculated relative IGF-IR activation by gly-pro-IGF-I (GP), mature IGF-I set to 1.0, from the KRR equation: 0.47; calculated relative IGF-IR activation by gly-pro-IGF-I (GP), mature IGF-I set to 1.0, mean of the IA and KRR equations: 0.38 |
| mature IGF-I (murine), produced from the IGF-ISt construct (from UniProt P05017 49-118) (ligand) | 1 | 39 | 47.9 | – |
| IGF-IKRRNN (IGF-IA with K68G, R71A, R77A, N92D, N100D; produces only pro-IGF-I) (from UniProt P05017 49-153) (ligand) | 0.93 | 42.6 | 44.4 | IGF-IR response in Kinase Receptor Activation (KIRA) assays, against mature IGF-I: 30 % more |
